Measured values reported in EP4793349A2.

Biological target: cation-independent mannose-6-phosphate receptor (CIMPR)
Test: CIMPR affinity chromatography of spent culture medium, before AEX capture

Substance: recombinant human α-galactosidase A (rhα-Gal A) (from UniProt P06280 32-429) (enzyme)
- percent able to bind CIMPR: 80%
